Measured values from PMC11818005, “Elucidation of the key flavonol biosynthetic pathway in golden Camellia and its application in genetic modification of tomato fruit metabolism” (Horticulture Research, 2024).

Columns and labels:
Assay in all cases: UPLC-UV of flavonol product, initial kinetics
Settings in all cases: 100 mM Tricine pH 7.5, 0.1 mM FeSO4, 10 mM ascorbate, 10 mM 2-oxoglutarate, 28°C
[1] = substrate: O=C1c2c(O)cc(O)cc2O[C@H](c2ccc(O)cc2)[C@H]1O; type: biochemical, Arabidopsis thaliana
Excerpt: (§1) UPLC-UV of flavonol product, initial kinetics on AtFLS1

[2] = substrate: O=C1c2c(O)cc(O)cc2O[C@H](c2ccc(O)c(O)c2)[C@H]1O; type: biochemical, Arabidopsis thaliana
Excerpt: as §1

[3] = substrate: O=C1c2c(O)cc(O)cc2O[C@H](c2ccc(O)cc2)[C@H]1O; type: biochemical, Camellia nitidissima
Excerpt: (§2) UPLC-UV of flavonol product, initial kinetics on CnFLS1

[4] = substrate: O=C1c2c(O)cc(O)cc2O[C@H](c2ccc(O)c(O)c2)[C@H]1O; type: biochemical, Camellia nitidissima
Excerpt: as §2

Row | Protein | Km [1] | kcat [1] | kcat/Km [1] | Km [2] | kcat [2] | kcat/Km [2] | Km [3] | kcat [3] | kcat/Km [3] | Km [4] | kcat [4] | kcat/Km [4]
1 | AtFLS1 (Arabidopsis thaliana) (protein, cloned for comparison with CnFLS1 (pET28b, E. coli Rosetta (DE3), Ni-NTA purified)) MEVERVQDISSSSLLTEAIPLEFIRSEKEQPAITTFRGPTPAIPVVDLSDPDEESVRRAVVKASEEWGLFQVVNHGIPTELIRRLQDVGRKFFELPSSEKESVAKPEDSKDIEGYGTKLQKDPEGKKAWVDHLFHRIWPPSCVNYRFWPKNPPEYREVNEEYAVHVKKLSETLLGILSDGLGLKRDALKEGLGGEMAEYMMKINYYPPCPRPDLALGVPAHTDLSGITLLVPNEVPGLQVFKDDHWFDAEYIPSAVIVHIGDQILRLSNGRYKNVLHRTTVDKEKTRMSWPVFLEPPREKIVGPLPELTGDDNPPKFKPFAFKDYSYRKLNKLPLD | 95.01 µM | 0.11 s⁻¹ | 1180 M⁻¹ s⁻¹ | 29.89 µM | 0.02 s⁻¹ | 794 M⁻¹ s⁻¹ | – | – | – | – | – | –
2 | CnFLS1 (Camellia nitidissima) (protein) MELERVQVIASLSKCIDTIPAEYIRSENEQPAITTIQGKVLEVPVIDLSNDSDDQNIVQMVAEACRDWGIFQVVNHGIPDEVIGNLQRVGKDFFELPQEEKEVYAKPPESKSVEGYGTKLQKEVEGKKGWVDHLFHKIWPPSAINYKFWPKNPPSYREANEVYAERLRAVADKLFRWLSLGLGLEGHEVKEAVGGDDLIYLMKINYYPPCPRPDLALGVVAHTDMSTLTILVPNEVPGLQVFKDDHWYEVKYIPNALIVHIGDQIEIVSNGKYKAVFHRSTVNKETTRMSWPVFIEPSPEVEVGPHPKLIDDENPPKYKTKKYEDYMYCKLNKLPQ | – | – | – | – | – | – | 60.63 µM | 0.08 s⁻¹ | 1300 M⁻¹ s⁻¹ | 18.68 µM | 0.02 s⁻¹ | 1320 M⁻¹ s⁻¹
